Measured values: US20230212306A1 (Daiichi Sankyo, published 2023)

T1: mouse TLR7-Flag-His×6, expressed in Ba/F3 cells (mouse, UniProt P58681 27-1050)
T1 construct: cells permeabilised with 0.1% saponin; not shown: Flag-His×6 tag added to the C-terminus
T1 sequence: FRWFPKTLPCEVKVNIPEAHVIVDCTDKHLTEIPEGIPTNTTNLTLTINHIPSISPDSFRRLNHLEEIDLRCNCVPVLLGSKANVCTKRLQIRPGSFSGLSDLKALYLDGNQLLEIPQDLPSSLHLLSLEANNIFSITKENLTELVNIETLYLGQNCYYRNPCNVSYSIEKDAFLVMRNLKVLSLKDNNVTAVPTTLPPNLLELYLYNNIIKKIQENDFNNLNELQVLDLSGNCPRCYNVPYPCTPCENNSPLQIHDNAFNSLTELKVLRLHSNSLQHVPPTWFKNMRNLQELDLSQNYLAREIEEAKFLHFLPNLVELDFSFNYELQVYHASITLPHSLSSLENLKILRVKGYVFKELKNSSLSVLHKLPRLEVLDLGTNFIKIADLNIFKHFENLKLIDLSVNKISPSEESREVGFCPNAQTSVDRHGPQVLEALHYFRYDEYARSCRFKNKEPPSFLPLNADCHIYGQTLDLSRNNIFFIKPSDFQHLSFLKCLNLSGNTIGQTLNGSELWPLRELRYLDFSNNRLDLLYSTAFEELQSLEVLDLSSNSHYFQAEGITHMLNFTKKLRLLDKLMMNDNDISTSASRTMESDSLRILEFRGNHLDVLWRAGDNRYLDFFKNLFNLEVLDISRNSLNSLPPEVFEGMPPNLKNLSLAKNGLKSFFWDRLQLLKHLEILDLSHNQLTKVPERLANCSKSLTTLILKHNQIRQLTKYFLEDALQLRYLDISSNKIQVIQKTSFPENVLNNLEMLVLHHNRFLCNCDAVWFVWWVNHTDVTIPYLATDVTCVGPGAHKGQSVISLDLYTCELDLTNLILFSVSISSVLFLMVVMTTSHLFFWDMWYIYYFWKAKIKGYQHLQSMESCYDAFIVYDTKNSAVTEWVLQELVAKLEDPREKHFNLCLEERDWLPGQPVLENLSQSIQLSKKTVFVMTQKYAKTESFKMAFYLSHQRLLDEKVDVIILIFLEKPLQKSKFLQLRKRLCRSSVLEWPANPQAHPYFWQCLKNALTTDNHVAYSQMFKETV

T2: human TLR7-Flag-His×6 (human TLR7 variant 2), expressed in Ba/F3 cells together with human Unc93B1-HA×2 (human, UniProt Q9NYK1 27-1049)
T2 construct: Cells were permeabilised with 0.1% saponin before staining; also called hTLR7-Flag-His×6; not shown: Flag-His×6 tag added to the C-terminus
T2 sequence: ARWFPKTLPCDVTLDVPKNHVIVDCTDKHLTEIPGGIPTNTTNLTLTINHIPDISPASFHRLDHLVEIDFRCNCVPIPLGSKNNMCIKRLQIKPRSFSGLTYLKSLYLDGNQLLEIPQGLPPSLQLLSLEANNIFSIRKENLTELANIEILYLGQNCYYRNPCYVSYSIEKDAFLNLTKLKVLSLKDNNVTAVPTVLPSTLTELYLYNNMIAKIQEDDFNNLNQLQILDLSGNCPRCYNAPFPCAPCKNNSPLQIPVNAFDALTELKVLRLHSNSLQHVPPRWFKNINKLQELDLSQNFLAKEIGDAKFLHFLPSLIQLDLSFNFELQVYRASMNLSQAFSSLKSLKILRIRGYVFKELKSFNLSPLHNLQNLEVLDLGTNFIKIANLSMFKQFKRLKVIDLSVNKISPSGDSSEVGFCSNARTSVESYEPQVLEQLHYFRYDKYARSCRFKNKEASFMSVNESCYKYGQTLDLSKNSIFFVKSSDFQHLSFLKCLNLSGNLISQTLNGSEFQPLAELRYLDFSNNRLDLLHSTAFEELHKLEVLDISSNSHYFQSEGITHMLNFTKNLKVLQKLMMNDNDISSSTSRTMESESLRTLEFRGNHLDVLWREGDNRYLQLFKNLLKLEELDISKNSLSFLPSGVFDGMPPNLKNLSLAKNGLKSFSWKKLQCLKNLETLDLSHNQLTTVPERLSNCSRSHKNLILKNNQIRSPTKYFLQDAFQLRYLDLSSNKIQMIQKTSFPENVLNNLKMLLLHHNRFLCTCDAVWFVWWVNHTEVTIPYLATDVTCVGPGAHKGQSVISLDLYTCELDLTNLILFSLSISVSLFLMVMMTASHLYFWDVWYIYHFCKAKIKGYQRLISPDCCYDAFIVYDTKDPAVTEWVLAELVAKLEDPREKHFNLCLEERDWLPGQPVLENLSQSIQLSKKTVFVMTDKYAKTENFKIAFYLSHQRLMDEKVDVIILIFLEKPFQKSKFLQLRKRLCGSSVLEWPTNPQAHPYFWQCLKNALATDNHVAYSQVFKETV

T3: human TLR7 (variant 2)-Flag, expressed in HEK293 cells (human, UniProt Q9NYK1 27-1049)
T3 construct: Transient expression from pcDNA3.1 in Lenti-X HEK293T cells; cells fixed and permeabilised before staining; not shown: Flag tag
T3 sequence: T2 sequence

B1: AT01 antibody (antibody, IgG1, V domains shown)
VH: QVQLQQPGAELVKPGASVNLSCKASGYTFTNNWLHWVKQRPGRGLEWIGDIYPSNGRTNYNEQFKTKATLTVDKSSSTAYMQLSSLTSEDSAVYFCARERGYFDYWGQGTALTVSS
VL: DIQMTQSPSSLSTSLGGKVTITCKASQDINKYIAWYQHKPGKGPRLLIHYTSTLQPGIPSRFSGSGSGRDYSFSISNLEPEDIATYYCLQYDYLLTFGAGTKLELK
notes: also called mouse anti-human TLR7 antibody (AT01)
B2: huAT01_H3L2_IgG1LALA antibody (antibody, V domains shown)
VH: QVQLVQSGAEVKKPGASVKVSCKASGYTFTNNWLHWVRQAPGQGLEWMGDIYPSNGRTNYAQKFQGRVTLTVDKSTSTAYMELSSLRSEDTAVYFCARERGYFDYWGQGTLVTVSS
VL: DIQMTQSPSSLSASVGDRVTITCKASQDINKYIAWYQQKPGKAPKLLIHYTSTLQPGIPSRFSGSGSGRDYTLTISSLQPEDFATYYCLQYDYLLTFGQGTKVEIKR
notes: Humanized AT01; heavy huAT01_H3_IgG1LALA, light huAT01_L2
B3: NB7 antibody (antibody, IgG1, V domains shown)
VH: DVQLQESGPGLVKPSQSLSLTCTVTGYSITSDYAWNWIRQFPGNKLEWMGHISYRGNTNYNPSLKSRISITRDTSKNQFFLQLNSVTTEDTATYYCASWNYYGYVDYAMDYWGQGTSVTVSS
VL: DIQMTQTPSSLSASLGDRVTISCRASQDISNYLNWYQQKPDGTVKLLIYYTSRLHSGVPSRFSGSGSGTDYSLTINNLEQEDIATYFCQQGDTFPTFGGGTKLEIK
notes: also called mouse anti-human TLR7 antibody (NB7)
B4: FAN2 antibody (antibody, IgG1, V domains shown)
VH: QVQLKESGPGLVAPSQSLSITCTVSGFSLTGYGVNWVRQPPGKGLEWLGMIWGDGSTDYNSALKSRLSIRKDNSKSQVFLKMNSLQTDDTARYYCARDKGYDGYYYAMDYWGQGTSVTVSS
VL: DIQMTQSPASLSASVGETVTITCRASENIYSYLAWYQQKQGKSPQLLVYDAKTLAEGVPSRFSGSGSGTQFSLKINSLQPEDFGSYYCQHHYGIPYTFGGGTKLEIK
notes: also called mouse anti-human TLR7 antibody (FAN2)

Key:
[1] = molecular target: T1, mouse TLR7-Flag-His×6, expressed in …; assay: flow cytometry (MFI) on saponin-permeabilised Ba/F3 cells expressing mouse TLR7-Flag-His×6
From the text: (§1) The Ba/F3 cell line expressing human TLR7-Flag-His×6/human Unc93B1-HA×2 established above in 1)-1-1, the Ba/F3 cell line expressing mouse TLR7-Flag-His×6 established above in 2)-1-1, the Ba/F3 cell line expressing rat TLR7-Flag-His×6×2 established above in 2)-1-2, and the Ba/F3 cell line expressing monkey TLR7-Flag-His×6 established above in 2)-1-3 were subjected to membrane permeation with 0.1% Saponin and stained using AT01 antibody, NB7 antibody, and FAN2 antibody, and a secondary antibody, Goat anti-mouse IgG (H+L)-PE (eBioscience). The binding selectivity of each antibody was evaluated by comparing the average fluorescence intensity (MFI) based on flow cytometry analysis.

[2] = molecular target: T2, human TLR7-Flag-His×6 (human TLR7 …); assay: flow cytometry (MFI) on saponin-permeabilised Ba/F3 cells expressing human TLR7-Flag-His×6/human Unc93B1-HA×2
From the text: as §1

[3] = molecular target: T3, human TLR7 (variant 2)-Flag, expressed …; assay: flow cytometry on fixed and permeabilised HEK293 cells expressing human TLR7 (variant 2)-Flag
From the text: The HEK293 cells expressing human TLR7 (variant 1)-Flag prepared in 8)-1, the HEK293 cells expressing human TLR7 (variant 2)-Flag prepared in 8)-2, the HEK293 cells expressing monkey TLR7-Flag prepared in 8)-3, the HEK293 cells expressing mouse TLR7-Flag prepared in 8)-4, and the HEK293 cells expressing rat TLR7-Flag prepared in 8)-5 were immobilized/subjected to membrane permeation with a Fixation and Permeabilization Solution (Becton, Dickinson and Company) and thereafter stained using huAT01_H3L2_IgG1LALA, which is one of the humanized anti-human TLR7 antibodies, and ALEXA FLUOR® 647 AffiniPure Goat anti-human IgG+IgM (H+L) (Jackson ImmunoResearch Inc.), which is the secondary antibody.
The binding of the humanized anti-human TLR7 antibody to human TLR7 was detected based on flow cytometry (Miltenyi Biotec K.K.), and the data was analyzed using software (Flowjo) which analyzes the data of flow cytometry.

Binder | binding result [1] | binding result [2] | binding result [3]
B1 | no binding | binds | 
B2 |  |  | binds
B3 | no binding | binds | 
B4 | no binding | binds | 
